Results published in article PMC6045628 (Scientific Reports, 2018).

B1: E. coli glutamine synthetase fused to mEGFP (GlnA-mEGFP) (enzyme, UniProt P0A9C5 1-469, looked up)
chain: MSAEHVLTMLNEHEVKFVDLRFTDTKGKEQHVTIPAHQVNAEFFEEGKMFDGSSIGGWKGINESDMVLMPDASTAVIDPFFADSTLIIRCDILEPGTLQGYDRDPRSIAKRAEDYLRSTGIADTVLFGPEPEFFLFDDIRFGSSISGSHVAIDDIEGAWNSSTQYEGGNKGHRPAVKGGYFPVPPVDSAQDIRSEMCLVMEQMGLVVEAHHHEVATAGQNEVATRFNTMTKKADEIQIYKYVVHNVAHRFGKTATFMPKPMFGDNGSGMHCHMSLSKNGVNLFAGDKYAGLSEQALYYIGGVIKHAKAINALANPTTNSYKRLVPGYEAPVMLAYSARNRSASIRIPVVSSPKARRIEVRFPDPAANPYLCFAALLMAGLDGIKNKIHPGEAMDKNLYDLPPEEAKEIPQVAGSLEEALNELDLDREFLKAGGVFTDEAIDAYIALRREEDDRVRMTPHPVEFELYYSV
notes: also called GlnA complex; copies: 12

How the values were obtained:
[1] = target: Influenza A virus hemagglutinin fused to mEGFP (HA-wt-mEGFP) (Influenza A virus)
[2] = target: the molecule itself; experiment: Number&Brightness analysis (fluorescence fluctuation spectroscopy, molecular brightness); living U2OS cells expressing the mEGFP fusion; brightness normalised to 1xmEGFP and corrected for non-fluorescent mEGFP with pf = 0.72 from 2xmEGFP

Row | Molecule | stoichiometry N [1] | stoichiometry N [2]
1 | Influenza A virus hemagglutinin fused to mEGFP (HA-wt-mEGFP) (natural protein) | 3.17 | 
2 | B1 |  | 11.9
